Data from article PMC6056229, “Cryo-EM structure of the polycystin 2-l1 ion channel” (eLife, 2018).

Target: the molecule itself
Assay: cryo-EM structure; single particle cryo-EM of purified full-length polycystin 2-l1 in amphipol PMAL-C8, HKN buffer (HEPES 50, KCl 150, NaCl 50, CaCl2 5 mM; pH 7.5), C4 symmetry imposed, 3.3 Å

B1: human polycystic kidney disease 2-like 1 (polycystin 2-l1) ion channel (natural protein, UniProt Q9P0L9 1-805, looked up)
chain: MNAVGSPEGQELQKLGSGAWDNPAYSGPPSPHGTLRVCTISSTGPLQPQPKKPEDEPQETAYRTQVSSCCLHICQGIRGLWGTTLTENTAENRELYIKTTLRELLVYIVFLVDICLLTYGMTSSSAYYYTKVMSELFLHTPSDTGVSFQAISSMADFWDFAQGPLLDSLYWTKWYNNQSLGHGSHSFIYYENMLLGVPRLRQLKVRNDSCVVHEDFREDILSCYDVYSPDKEEQLPFGPFNGTAWTYHSQDELGGFSHWGRLTSYSGGGYYLDLPGSRQGSAEALRALQEGLWLDRGTRVVFIDFSVYNANINLFCVLRLVVEFPATGGAIPSWQIRTVKLIRYVSNWDFFIVGCEVIFCVFIFYYVVEEILELHIHRLRYLSSIWNILDLVVILLSIVAVGFHIFRTLEVNRLMGKLLQQPNTYADFEFLAFWQTQYNNMNAVNLFFAWIKIFKYISFNKTMTQLSSTLARCAKDILGFAVMFFIVFFAYAQLGYLLFGTQVENFSTFIKCIFTQFRIILGDFDYNAIDNANRILGPAYFVTYVFFVFFVLLNMFLAIINDTYSEVKEELAGQKDELQLSDLLKQGYNKTLLRLRLRKERVSDVQKVLQGGEQEIQFEDFTNTLRELGHAEHEITELTATFTKFDRDGNRILDEKEQEKMRQDLEEERVALNTEIEKLGRSIVSSPQGKSGPEAARAGGWVSGEEFYMLTRRVLQLETVLEGVVSQIDAVGSKLKMLERKGWLAPSPGVKEQAIWKHPQPAPAVTPDPWGVQGGQESEVPYKREEEALEERRLSRGEIPTLQRS
modifications: glycan at N207; disulfide bond C210-C223
notes: polycystin 2-l1 (PKD2L1), human, full length; synthetic gene, not codon optimized; UniProt Q9P0L9; No cleavage of the MBP tag is described; fractions were found by western blot against MBP during the preparation for cryo-EM; The N terminus, the S4-S5 linker and the C terminus are not resolved in the map; also called PKD2L1; PC-2L1
- stoichiometry N: 4
